Assay results reported in paper PMC11575451 (The Journal of Cell Biology, 2024).

Target: T1, FLAG-HA-RTN3L (human, UniProt O95197 1-1032)
T1 sequence (looked up): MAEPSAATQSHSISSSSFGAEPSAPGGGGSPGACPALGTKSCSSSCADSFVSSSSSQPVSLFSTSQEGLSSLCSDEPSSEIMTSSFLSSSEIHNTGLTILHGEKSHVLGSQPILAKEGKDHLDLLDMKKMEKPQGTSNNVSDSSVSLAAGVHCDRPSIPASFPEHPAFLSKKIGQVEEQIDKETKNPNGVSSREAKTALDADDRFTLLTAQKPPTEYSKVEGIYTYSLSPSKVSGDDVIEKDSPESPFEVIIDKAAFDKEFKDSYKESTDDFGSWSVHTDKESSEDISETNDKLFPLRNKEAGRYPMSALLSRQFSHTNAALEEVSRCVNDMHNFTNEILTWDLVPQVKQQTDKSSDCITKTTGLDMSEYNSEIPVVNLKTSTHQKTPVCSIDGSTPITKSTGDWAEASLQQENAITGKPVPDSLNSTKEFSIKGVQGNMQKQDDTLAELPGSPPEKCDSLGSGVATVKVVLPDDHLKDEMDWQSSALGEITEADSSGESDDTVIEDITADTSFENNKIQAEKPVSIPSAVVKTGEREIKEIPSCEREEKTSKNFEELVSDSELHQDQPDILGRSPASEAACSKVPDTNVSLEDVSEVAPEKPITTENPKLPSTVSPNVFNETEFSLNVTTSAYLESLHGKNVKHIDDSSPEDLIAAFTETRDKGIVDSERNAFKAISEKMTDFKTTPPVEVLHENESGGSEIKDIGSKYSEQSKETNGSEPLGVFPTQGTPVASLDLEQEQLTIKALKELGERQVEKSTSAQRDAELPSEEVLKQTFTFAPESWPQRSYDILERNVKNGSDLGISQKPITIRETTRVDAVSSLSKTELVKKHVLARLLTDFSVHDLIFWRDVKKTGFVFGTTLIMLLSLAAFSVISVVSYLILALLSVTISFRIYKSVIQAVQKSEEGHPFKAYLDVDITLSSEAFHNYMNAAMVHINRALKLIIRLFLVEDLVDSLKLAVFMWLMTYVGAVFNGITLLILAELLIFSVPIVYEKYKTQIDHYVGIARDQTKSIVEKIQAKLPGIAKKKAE
Assay: co-IP

PEF1 precipitated in the tagged sample relative to the untagged control: 4.8 x
B1: PEF1 (natural protein, human (endogenous in U2OS), UniProt Q9UBV8 1-284, looked up)
chain: MASYPYRQGCPGAAGQAPGAPPGSYYPGPPNSGGQYGSGLPPGGGYGGPAPGGPYGPPAGGGPYGHPNPGMFPSGTPGGPYGGAAPGGPYGQPPPSSYGAQQPGLYGQGGAPPNVDPEAYSWFQSVDSDHSGYISMKELKQALVNCNWSSFNDETCLMMINMFDKTKSGRIDVYGFSALWKFIQQWKNLFQQYDRDRSGSISYTELQQALSQMGYNLSPQFTQLLVSRYCPRSANPAMQLDRFIQVCTQLQVLTEAFREKDTAVQGNIRLSFEDFVTMTASRML
